For ten sequences, IC50 results are on record in the Immune Epitope Database (IEDB).

Where only a bound is given, the exact number is not on record here.

Assay in all cases: IEDB peptide-MHC binding, purified MHC/competitive/fluorescence; ≥ and ≤ were set here for values at or beyond the usual limits of such assays
Assay [1] concerns the target HLA-A*02:01.
In assay [2] the target is HLA-A*03:01.
Assay [3] addresses HLA-A*11:01.
In assay [4] the target is HLA-A*24:02.
In assay [5] the target is HLA-B*15:01. The following applies: source organism: Zaire ebolavirus.
Where [6] appears, read: source organism: Zaire ebolavirus.
[7] abbreviates: source organism: Sudan ebolavirus.

A word on the IC50: it is the point on the concentration scale where inhibition reaches its midpoint. For ATTELRTFS, the IC50 in assay [1] (setting [6]) was at least 202 µM; in assay [2] (setting [6]) it was at least 123 µM; in assay [3] (setting [6]), 11.1 µM.

Consider AMVTLRKER, for which the IC50 in assay [1] (setting [6]) came to 30.3 µM; in assay [2] (setting [6]) it was 30.2 µM; in assay [3] (setting [6]), 29.6 µM.

As to KAIDFLLRR, the IC50 in assay [1] (setting [7]) is at least 100 µM; in assay [2] (setting [7]), 5.75 µM; in assay [3] (setting [7]), 2.74 µM.

In the case of KVQRQIQVH, the IC50 in assay [1] (setting [6]) is at least 214 µM; in assay [2] (setting [6]) it was 17.6 µM; in assay [3] (setting [6]), 15.8 µM; in assay [4] (setting [6]) it was 15.4 µM; in assay [5] it was 45.2 µM.

Take KNSPGMVPL: the figures for the IC50 in assay [1] (setting [7]), in assay [2] (setting [7]) and in assay [3] (setting [7]) were at least 100 µM, at least 201 µM and 22.4 µM, respectively.

As to ASSRITKGR, the 50% inhibitory concentration (IC50) in assay [2] (setting [7]) turned out to be 11 µM; in assay [3] (setting [7]), 0.765 µM.

On to GGQQKNSQK, for which the half-inhibitory concentration (IC50) was at least 119 µM in assay [2] (setting [6]) and 1.59 µM in assay [3] (setting [6]).

For the sequence DETSSLPPL, the values for the IC50 in assay [2] (setting [6]) and in assay [3] (setting [6]) were at least 330 µM and at least 73.1 µM, respectively.

With LTYVQLESR, the IC50 in assay [2] (setting [6]) stood at 8.66 µM; in assay [3] (setting [6]) it was 1.63 µM.

On to NPGTYVYFY, for which the IC50 was at least 424 µM in assay [2] (source organism: Variola virus), 38.7 µM in assay [3] (source organism: Variola virus) and 54.9 µM in assay [4] (source organism: Variola virus).
